One molecule from patent publication US20090202531A1 (Novartis, published 2009) can be followed below.

Assay [1] has as its target T1, human FcγRIIIa-158F (human, UniProt P08637 17-208, limits assumed).
T1 construct: also called FcγRIIIa aa158F allele
Description: Biacore (SPR); reference rituximab on the same allele. On the technique in general: SPR reads the build-up and loss of mass on a sensor chip optically.

In a further assay the target is T2, human FcγRIIIa-158V (human, UniProt P08637 17-208).
T2 construct: also called FcγRIIIa aa518V allele (sic); FcγRIIIa aa158V
Nature of the assay: Biacore (SPR).

In assay [2] the target is T1, human FcγRIIIa-158F. Nature of the assay: Biacore (SPR).

T1 sequence (P08637 17-208 limits assumed): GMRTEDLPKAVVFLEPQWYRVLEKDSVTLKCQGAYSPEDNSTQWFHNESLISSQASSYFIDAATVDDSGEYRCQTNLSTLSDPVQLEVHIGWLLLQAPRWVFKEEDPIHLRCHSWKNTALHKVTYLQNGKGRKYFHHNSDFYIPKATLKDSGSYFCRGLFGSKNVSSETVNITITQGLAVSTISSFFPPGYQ
T2 sequence (P08637 17-208 F176V): as the sequence (P08637 17-208 limits assumed) above, with F160V counted along it

B1: monoclonal antibody CHIR-12.12 (antibody)
heavy: not shown
light: DIVMTQSPLSLTVTPGEPASISCRSSQSLLYSNGYNYLDWYLQKPGQSPQVLISLGSNRASGVPDRFSGSGSGTDFTLKISRVEAEDVGVYYCMQARQTPFTFGPGTKVDIRRTVAAPSVFIFPPSDEQLKSGTASVVCLLNNFYPREAKVQWKVDNALQSGNSQESVTEQDSKDSTYSLSSTLTLSKADYEKHKVYACEVTHQGLSSPVTKSFNRGEC
notes: Fully human anti-CD40 IgG1 kappa; also called CH12.12
The term Kd denotes a measure of binding affinity in units of concentration. A low value points to a tighter complex. Take B1: the “fold higher affinity compared with rituximab” value in the assay with human FcγRIIIa-158F [1] was found to be 4.6 fold. For the same molecule, the Kd in the assay with human FcγRIIIa-158V was determined as 492 nM; with human FcγRIIIa-158F [2], 2800 nM.
